For assay [1], the target named is epidermal growth factor receptor (EGFR) on human tumor cells (human, UniProt P00533 25-1210). Briefly: cell-based or functional assay.
Assay [2] deals with T1, recombinant human protein CD3ε/δ (ACRO systems, CDD-H52W1) (human, UniProt P07766 23-126; P04234 22-105).
T1 construct: Bought heterodimer
Briefly: BLI, antibody on AHC sensor, antigen as analyte. The protocol:
(§1) Antibodies were first captured onto an anti-human IgG Fc coated AHC biosensor (Anti-hIgG Fc, Sartorius, 18-5060). Antibodies were diluted to 5 μg/mL and 1.5 nm protein was coupled to the AHC sensor surface in 0.02% PBST.
(§2) After the sensor captures the antibodies, it binds and dissociates with different concentrations of analytes to obtain the KD value of the interaction. The experimental parameters are as follows: Baseline1: 60 s, Loading: 240 s, Baseline2: 180 s, Association: 240 s, Dissociation: 600 s, High sensitivity kinetics: 2 Hz. Kinetic constants were derived based on the rate equation for 1:1 Langmuir binding to obtain equilibrium dissociation constants (KD). The Data Analysis HT 12 software (Sartorius, 50-5029) was used to simultaneously fit binding and dissociation curves to calculate Kₒₙ and Koff. The affinity KD was calculated based on the below formula: KD=Koff/Kₒₙ.
(In general: BLI is a label-free optical method that tracks binding on a fibre tip over time.)

The target of assay [3] is T2, recombinant human tumor antigen HER2 (ERBB2, ACRO systems, HE2-H5212) (human, UniProt P04626 23-652).
T2 construct: Bought
The assay can be described thus: BLI, antibody on AHC sensor, antigen as analyte. The protocol:
as §1, §2

Assay [4] has as its target T3, recombinant human tumor antigen CEA (CEACAM-5/CD66e, ACRO systems, CE5-H5226) (human, UniProt P06731 35-685).
T3 construct: Bought
T3 sequence (looked up): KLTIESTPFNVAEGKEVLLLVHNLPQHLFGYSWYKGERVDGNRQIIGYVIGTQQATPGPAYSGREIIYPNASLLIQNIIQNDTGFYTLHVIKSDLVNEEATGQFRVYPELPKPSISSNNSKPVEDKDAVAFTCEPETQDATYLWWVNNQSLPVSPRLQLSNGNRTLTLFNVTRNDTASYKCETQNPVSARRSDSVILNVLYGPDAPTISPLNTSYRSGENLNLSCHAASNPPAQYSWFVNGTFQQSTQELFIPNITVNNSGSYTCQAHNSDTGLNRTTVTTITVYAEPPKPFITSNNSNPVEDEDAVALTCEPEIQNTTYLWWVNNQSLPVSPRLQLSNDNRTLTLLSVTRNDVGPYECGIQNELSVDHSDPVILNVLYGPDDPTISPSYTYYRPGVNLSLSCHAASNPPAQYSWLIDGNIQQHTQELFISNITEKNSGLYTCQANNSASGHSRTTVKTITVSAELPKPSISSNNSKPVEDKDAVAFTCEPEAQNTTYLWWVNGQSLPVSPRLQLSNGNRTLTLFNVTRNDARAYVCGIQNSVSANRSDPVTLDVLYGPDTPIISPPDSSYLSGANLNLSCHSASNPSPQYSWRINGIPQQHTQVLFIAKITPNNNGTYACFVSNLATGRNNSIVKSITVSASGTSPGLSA
The assay can be described thus: BLI, antibody on AHC sensor, antigen as analyte. The protocol: as §1, §2

Assay [5] deals with T4, recombinant human CD3ε/δ protein (ACRO systems, CDD-H52W1) (human, UniProt P07766 23-126; P04234 22-105).
T4 construct: Bought reagent
T4 sequence (P07766 23-126, stated change not applied, chain 1 of 2): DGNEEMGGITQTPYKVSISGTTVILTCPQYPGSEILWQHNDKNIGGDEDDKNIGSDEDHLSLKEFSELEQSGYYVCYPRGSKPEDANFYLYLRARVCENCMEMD
T4 sequence (P04234 22-105, stated change not applied, chain 2 of 2): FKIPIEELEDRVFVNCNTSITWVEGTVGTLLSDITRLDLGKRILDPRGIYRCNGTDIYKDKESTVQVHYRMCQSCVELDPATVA
The assay can be described thus: BLI, antibody captured on AHC sensor. The procedure:
as §1
as §2, with “it is used to bind” for “it binds”, “and dissociate” for “and dissociates”, “calculate Kₒₙ,” for “calculate Kₒₙ”

T1 sequence (P07766 23-126, stated change not applied, chain 1 of 2): as the sequence (P07766 23-126, stated change not applied, chain 1 of 2) above
T1 sequence (P04234 22-105, stated change not applied, chain 2 of 2): as the sequence (P04234 22-105, stated change not applied, chain 2 of 2) above

B1: EGFR-BsAb bispecific control antibody (anti-CD3 TA1 Fab and EGFR VHH) (bispecific antibody, human IgG4 S228P, kappa, F234A L235A)
heavy: EVKLLESGGGLVQPKGSLKLSCAASGFTFNTYAMNWVRQAPGKGLEWVARIRSKYNNYATYYADSVKDRFTISRDDSQSILYLQMNNLKTEDTAMYYCVRHGNFGNSYVSWFAYWGQGTLVTVSSASTKGPSVFPLAPCSRSTSESTAALGCLVKDYFPEPVTVSWNSGALTSGVHTFPAVLQSSGLYSLSSVVTVPSSSLGTKTYTCNVDHKPSNTKVDKRVESKYGPPCPPCPAPEAAGGPSVFLFPPKPKDTLMISRTPEVTCVVVDVSQEDPEVQFNWYVDGVEVHNAKTKPREEQFNSTYRVVSVLTVLHQDWLNGKEYKCKVSNKGLPSSIEKTISKAKGQPREPQVYTLPPCQEEMTKNQVSLWCLVKGFYPSDIAVEWESNGQPENNYKTTPPVLDSDGSFFLYSRLTVDKSRWQEGNVFSCSVMHEALHNHYTQKSLSLSL
chain: QVQLQESGGGSVQAGGSLKLSCAASGRGFSRYAMGWFRQAPGQDREFVATISWTNSTDYADSVKGRFAISRDNAKNTAYLQMNSLKPEDTAVYYCAADKWASSTRSIDYDYWGQGIQVTVSSESKYGPPCPPCPAPEAAGGPSVFLFPPKPKDTLMISRTPEVTCVVVDVSQEDPEVQFNWYVDGVEVHNAKTKPREEQFNSTYRVVSVLTVLHQDWLNGKEYKCKVSNKGLPSSIEKTISKAKGQPREPQVCTLPPSQEEMTKNQVSLSCAVKGFYPSDIAVEWESNGQPENNYKTTPPVLDSDGSFFLVSRLTVDKSRWQEGNVFSCSVMHEALHNRFTQKSLSLSL
light: QAVVTQESALTTSPGETVTLTCRSSTGAVTTSNYANWVQEKPDHLFTGLIGGTNKRAPGVPARFSGSLIGDKAALTITGAQTEDEAIYFCALWYSNLWVFGGGTKVEIKRTVAAPSVFIFPPSDEQLKSGTASVVCLLNNFYPREAKVQWKVDNALQSGNSQESVTEQDSKDSTYSLSSTLTLSKADYEKHKVYACEVTHQGLSSPVTKSFNRGEC
In the case of B1, in assay [1], the “T cell mediated killing EC50, H-1975 (EGFR+c-Met+)” value stood at 0.32 pM; the “T cell mediated killing EC50, HT-29 (EGFR+c-Met+)” value was determined as 0.387 pM; the “T cell mediated killing EC50, OSRC2 (EGFR+++c-Met+)” value came out at 2.45 pM; the “T cell mediated killing EC50, UT33A (EGFR+++c-Met+++)” value amounted to 0.398 pM. Also, in assay [1], the “T cell mediated killing EC50, UT44 (EGFR+++c-Met++)” value was 0.154 pM.

B2: HER2-BsAb (CD3 TA1-Fab x HER2 VHH bispecific control antibody) (bispecific antibody, human IgG4 S228P, kappa, F234A L235A)
heavy: EVKLLESGGGLVQPKGSLKLSCAASGFTFNTYAMNWVRQAPGKGLEWVARIRSKYNNYATYYADSVKDRFTISRDDSQSILYLQMNNLKTEDTAMYYCVRHGNFGNSYVSWFAYWGQGTLVTVSSASTKGPSVFPLAPCSRSTSESTAALGCLVKDYFPEPVTVSWNSGALTSGVHTFPAVLQSSGLYSLSSVVTVPSSSLGTKTYTCNVDHKPSNTKVDKRVESKYGPPCPPCPAPEAAGGPSVFLFPPKPKDTLMISRTPEVTCVVVDVSQEDPEVQFNWYVDGVEVHNAKTKPREEQFNSTYRVVSVLTVLHQDWLNGKEYKCKVSNKGLPSSIEKTISKAKGQPREPQVYTLPPCQEEMTKNQVSLWCLVKGFYPSDIAVEWESNGQPENNYKTTPPVLDSDGSFFLYSRLTVDKSRWQEGNVFSCSVMHEALHNHYTQKSLSLSL
chain: QVQLVQSGGGLVQAGGSLRLSCAASGRTFSSYAMAWFRQAPGKEREFVAAISWSGANIYVADSVKGRFTISRDNAKDTVYLQMNSLKPEDTAVYYCAVKLGFAPVEERQYDYWGQGTQVTVSSESKYGPPCPPCPAPEAAGGPSVFLFPPKPKDTLMISRTPEVTCVVVDVSQEDPEVQFNWYVDGVEVHNAKTKPREEQFNSTYRVVSVLTVLHQDWLNGKEYKCKVSNKGLPSSIEKTISKAKGQPREPQVCTLPPSQEEMTKNQVSLSCAVKGFYPSDIAVEWESNGQPENNYKTTPPVLDSDGSFFLVSRLTVDKSRWQEGNVFSCSVMHEALHNRFTQKSLSLSL
light: QAVVTQESALTTSPGETVTLTCRSSTGAVTTSNYANWVQEKPDHLFTGLIGGTNKRAPGVPARFSGSLIGDKAALTITGAQTEDEAIYFCALWYSNLWVFGGGTKVEIKRTVAAPSVFIFPPSDEQLKSGTASVVCLLNNFYPREAKVQWKVDNALQSGNSQESVTEQDSKDSTYSLSSTLTLSKADYEKHKVYACEVTHQGLSSPVTKSFNRGEC
The Kd is a measure of binding affinity in units of concentration. For orientation: koff means a measure of how fast the partners let go of each other. In general, kon refers to the second-order rate constant of association. B2: the results for the Kd in assay [2] and in assay [3] were 1510 pM and 98400 pM, respectively. In addition, the off-rate (koff) in assay [2] came out at 0.000386 s⁻¹; in assay [3], 0.0126 s⁻¹; in assay [4], 0.000391 s⁻¹. The on-rate (kon) in assay [2] stood at 256000 M⁻¹ s⁻¹; in assay [3] it was 128000 M⁻¹ s⁻¹; in assay [4], 877000 M⁻¹ s⁻¹.

B3: CEA-BsAb bispecific control antibody (TA1-Fab CD3 x CEA VHH) (bispecific antibody, human IgG4 S228P, kappa, F234A L235A)
heavy: EVKLLESGGGLVQPKGSLKLSCAASGFTFNTYAMNWVRQAPGKGLEWVARIRSKYNNYATYYADSVKDRFTISRDDSQSILYLQMNNLKTEDTAMYYCVRHGNFGNSYVSWFAYWGQGTLVTVSSASTKGPSVFPLAPCSRSTSESTAALGCLVKDYFPEPVTVSWNSGALTSGVHTFPAVLQSSGLYSLSSVVTVPSSSLGTKTYTCNVDHKPSNTKVDKRVESKYGPPCPPCPAPEAAGGPSVFLFPPKPKDTLMISRTPEVTCVVVDVSQEDPEVQFNWYVDGVEVHNAKTKPREEQFNSTYRVVSVLTVLHQDWLNGKEYKCKVSNKGLPSSIEKTISKAKGQPREPQVYTLPPCQEEMTKNQVSLWCLVKGFYPSDIAVEWESNGQPENNYKTTPPVLDSDGSFFLYSRLTVDKSRWQEGNVFSCSVMHEALHNHYTQKSLSLSL
chain: EVQLVESGGGFVQAGESLTLSCTSSTLTFTPYRMAWYRQAPGKQRDLVADISSGDGRTTNYADFAKGRFTISRDNIKNTVFLRMTNLKPEDTAVYYCNTFVSFVGIARSWGQGTQVTVSSESKYGPPCPPCPAPEAAGGPSVFLFPPKPKDTLMISRTPEVTCVVVDVSQEDPEVQFNWYVDGVEVHNAKTKPREEQFNSTYRVVSVLTVLHQDWLNGKEYKCKVSNKGLPSSIEKTISKAKGQPREPQVCTLPPSQEEMTKNQVSLSCAVKGFYPSDIAVEWESNGQPENNYKTTPPVLDSDGSFFLVSRLTVDKSRWQEGNVFSCSVMHEALHNRFTQKSLSLSL
light: QAVVTQESALTTSPGETVTLTCRSSTGAVTTSNYANWVQEKPDHLFTGLIGGTNKRAPGVPARFSGSLIGDKAALTITGAQTEDEAIYFCALWYSNLWVFGGGTKVEIKRTVAAPSVFIFPPSDEQLKSGTASVVCLLNNFYPREAKVQWKVDNALQSGNSQESVTEQDSKDSTYSLSSTLTLSKADYEKHKVYACEVTHQGLSSPVTKSFNRGEC
As for B3, in assay [5], the Kd was found to be 491 pM, the koff is 0.000236 s⁻¹ and the kon stood at 481000 M⁻¹ s⁻¹.

(Values after patent publication US20240409635A1 (VIBRANT PHARMA, published 2024).)
